The numbers were not newly measured in PMC10845085, which cites them from elsewhere.

The data set has as its target Neurotensin (Homo sapiens) (UniProt P30990).

With “Neurotensin receptor 2 (from UniProt O95665)”, the Kd – broadly, the free concentration of one partner at which half of the binding sites on the other are occupied at equilibrium, for simple one-to-one binding – is 6 nM.
